Experimental data published in the supplement of paper PMC12042874.
± gives the uncertainty stated by the source.

Assay: amyloid nucleation score (Sup35N fusion, yeast selection) (log enrichment); library NNK3; higher = more nucleation; inactive = no reads after selection
How it was run: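 Yeast lacking psi expressed peptides of 20 random codons fused to Sup35N, received 100 μM copper sulfate for 24 hours, and were then grown for 7 days at 30°C on medium lacking adenine and uracil. Illumina sequencing of input and output plasmid inserts provided the reads. Nucleation scores are DiMSum log enrichments of output over input, centred on the mode of non-aggregating sequences. Any sequence with under 100 input reads was excluded.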

HRYASVGSTYWGYKVDLLWC
amyloid nucleation score: inactive

HSDILRFCLMVNKDTVHSVL
amyloid nucleation score: inactive

HSEADDSLTGYFALVATRVF
amyloid nucleation score: inactive

HSITNITCSFDLAFLRMHVL
amyloid nucleation score: 0.871 ± 0.11

HSSMIIRLWLDVVVQIRGQ
amyloid nucleation score: 0.575 ± 0.28

HSSVSMGLVGGSTE
amyloid nucleation score: inactive

HSVASDYRTAFLLSHT
amyloid nucleation score: 1.39 ± 0.089

HSVFFY
amyloid nucleation score: inactive

HSVFISLGMFRPVTSYL
amyloid nucleation score: inactive

HSYFDFYSYDSYNVRHRSVK
amyloid nucleation score: inactive

HTLLHEF
amyloid nucleation score: inactive

HTRLAPWSMDEGRAV
amyloid nucleation score: inactive

HVIHGCNSIFYSVS
amyloid nucleation score: inactive

HVLLDPEIITA
amyloid nucleation score: inactive

HVMTHFG
amyloid nucleation score: inactive

HVSAARMFSSYDPRKPGENM
amyloid nucleation score: inactive

HVVFLSSMVATTLLWFG
amyloid nucleation score: 1.26 ± 0.12

HVVVKK
amyloid nucleation score: inactive

HWAVRH
amyloid nucleation score: 0.212 ± 0.42

HWKLHALGRWAGQGFTR
amyloid nucleation score: inactive

HWLTSSVKSLTPRSGQKGLD
amyloid nucleation score: inactive

HWSRFQYGLVFRNFIVQNLD
amyloid nucleation score: inactive

HWVLQYRCSARKRSHLRYSM
amyloid nucleation score: inactive

HWVWIGVCLYNDRRGTGICV
amyloid nucleation score: 1.15 ± 0.16

HYAAFFYLLINMTGHAHFLK
amyloid nucleation score: inactive

HYAASSLYLTATHGFICSMC
amyloid nucleation score: 1.73 ± 0.073

HYCMRN
amyloid nucleation score: inactive

HYEVRGVLFAMPPCGNI
amyloid nucleation score: inactive

HYKLSSMVSVYLLTIL
amyloid nucleation score: -0.307 ± 0.88

HYLLACSYDRFFSRSSAYSL
amyloid nucleation score: inactive

HYLRHHIAILSLATGLMETE
amyloid nucleation score: inactive

IADDQTYLLVLLFYFIKKLN
amyloid nucleation score: inactive

IAFATFVVTFIMMEEMFFKN
amyloid nucleation score: inactive

IAGLSNNTTDGLLRISHRYL
amyloid nucleation score: inactive

IAKLVKFEEFRMQDCYIDWL
amyloid nucleation score: inactive

IALKSGMVCRYRYHIGGRIS
amyloid nucleation score: inactive

IALLHQKHIG
amyloid nucleation score: inactive

IALLLQSQLMRHGGFASWNR
amyloid nucleation score: inactive

IALLWQAHLWRHDWKFYFDS
amyloid nucleation score: inactive

IANLRAFILFMCDMKSTNPK
amyloid nucleation score: inactive

IAYKFWGSNVLDR
amyloid nucleation score: inactive

ICDDMVGVC
amyloid nucleation score: inactive

ICGCPTYCNEANLLLERN
amyloid nucleation score: inactive

ICGMLR
amyloid nucleation score: inactive

ICPSNFWMFCSCYWSMLRNF
amyloid nucleation score: inactive

ICSYTSVYSRKW
amyloid nucleation score: 0.404 ± 0.35

ICTECAYFSTWRHSMCITWG
amyloid nucleation score: inactive

IDAYPVWELITLFLFGLMLY
amyloid nucleation score: inactive

IDFIVLSSL
amyloid nucleation score: inactive

IDKVLGPKVPAHRTSGGLSK
amyloid nucleation score: inactive

IDMFGSWFSCILGEKNQLGS
amyloid nucleation score: inactive

IDNMMYVV
amyloid nucleation score: inactive

IDVKSLSWKMYRRLGTIPYT
amyloid nucleation score: -0.317 ± 0.93

IEDAMVFLGTNSQTICLFNV
amyloid nucleation score: inactive

IEFFEYVCVMFFCC
amyloid nucleation score: inactive

IEGTAMTVTFTFNPYPFHET
amyloid nucleation score: inactive

IELERMNGL
amyloid nucleation score: inactive

IELRM
amyloid nucleation score: inactive

IERLTCIYRSFESHLAGFVG
amyloid nucleation score: inactive

IEVIYGV
amyloid nucleation score: inactive

IEVYAGTF
amyloid nucleation score: inactive

IFFQCNVAMQKDSDAKGTYV
amyloid nucleation score: 1.84 ± 0.067

IFGCFSCSVSMFIDNAVMSL
amyloid nucleation score: 2.55 ± 0.066

IFIGVGNVGEVLVIYSWQRN
amyloid nucleation score: 0.035 ± 0.48

IFILRLDIIALLNVTGIRIW
amyloid nucleation score: inactive

IFLLAVNSGINVTGCPLPKG
amyloid nucleation score: 2.28 ± 0.09

IFNWFDWIFRFSTTSPECLT
amyloid nucleation score: inactive

IFVNSTVLFLMHVCCLSVIS
amyloid nucleation score: 2.12 ± 0.068

IFVSCCLLRLSAGWVVKLIR
amyloid nucleation score: inactive

IGCWTSYSWNRSRKFYMQQE
amyloid nucleation score: 0.799 ± 0.17

IGIINMSLN
amyloid nucleation score: 1.19 ± 0.11

IGKSRFKCMSVVRSRFT
amyloid nucleation score: inactive

IGLSSHISWYE
amyloid nucleation score: inactive

IGNAFFETRLVFGRH
amyloid nucleation score: 1.86 ± 0.081

IGPVTLKERETRTP
amyloid nucleation score: inactive

IGSNRRSFEVCTYIASKIPL
amyloid nucleation score: inactive

IGSPSHLYKYHCVGFRVSSQ
amyloid nucleation score: inactive

IGTLSNLLTKGCKYYGVNIC
amyloid nucleation score: inactive

IGVLCALDGISRIAFFSLLL
amyloid nucleation score: inactive

IGWYYSYITRKSENWVLVAL
amyloid nucleation score: inactive
